# Laboratory results: patent US20160039904A1 (UNITED STATES OF AMERICA AS REPRESENTED BY THE SECRETARY …, published 2016)
# Tests used:
# HIV-1 gp140CH12.0544.2 = HIV-1 gp140CH12.0544.2 (HIV-1)
# HIV-1 gp140MS = HIV-1 gp140MS (HIV-1)
# HIV-1 gp140Con-s = HIV-1 gp140Con-s (HIV-1)
binder,measurement,setting,value
mD1.22 (receptor) not shown,Kd,HIV-1 gp140CH12.0544.2,0.17 nM
same,Kd,HIV-1 gp140MS,0.19 nM
same,Kd,HIV-1 gp140Con-s,4.4 nM
